Target: calreticulin (canine pancreas microsomes) (dog (endogenous in canine pancreas microsomes)) (UniProt P28490)
Assay: co-IP

“HA glycosylation mutant Δ483 (natural protein)” showed a reduction in binding against wild-type HA of 40%.

— PMC2141715
